Molecular target: CH848 day 949 SOSIP Env trimer (soluble SOSIP trimer derived from a virus isolated from the CH848 individual at day 949 post infection) (HIV-1)
Experiment: method not stated; affinities shown in Figure 1B; reference DH270 UCA

DH270.I5 Fab was tested, and the fold improvement of Env binding affinity relative to the UCA was 8 fold.

From patent publication EP4580670A2
